From PMC12467718

Biological target: mouse laminin (mouse)
Experiment: ELISA; ELISA-type: mouse laminin coated on a black polystyrene plate, 50 µg/mL biotinylated-Gal-8, 37 °C 1 h, Streptavidin-Alexa 488, fluorescence (RFU)

relative fluorescence units (RFU): 4000 RFU
Substance: biotinylated human Galectin-8 (natural protein)
